Here are results for 1 molecule from paper PMC9233695, “Structural mechanism of protein recognition by the FW domain of autophagy receptor Nbr1” (Nature Communications, 2022).

Assay [1] concerns the target CtNbr1-FW. In words: SPR analysis of CtNbr1-FW with CtAms1 protein. Further details: species or system Chaetomium thermophilum. Conditions: Biacore T200, 25 °C, GST-CtNbr1(635–775) captured by anti-GST on CM5 chip, about 200 RU, 10 mM HEPES, pH 7.4, 150 mM NaCl, 0.05% Tween 20, CtAms1 protein 50 to 1.56 nM twofold dilutions, 1:1 binding model, performed once, read-out: dissociation constant (KD). From the text: (§1) Fig. 4 Mutational analysis of interactions between CtAms1 and CtNbr1-FW. a–c Pil1 co-tethering assay. CtNbr1 FW domain and its mutants were fused to Pil1-mCherry and co-expressed with CtAms1-mECitrine or its mutants in S. pombe. Cells were imaged by fluorescence microscopy. Bar, 3 μm. The data shown are representative of two independent experiments with similar results. Source data are provided as a Source Data file. d SPR analysis of the CtNbr1-CtAms1 interaction. GST-tagged CtNbr1 FW domain or its mutants was bound to a CM5 sensor chip. CtAms1 or CtAms1-G2A (twofold serial dilutions from 50 nM to 1.56 nM) flowed through the chip surface. The experiments were performed once. e SPR analysis of the interactions of CtNbr1 and hNBR1 with CtAms1 N-terminal peptides. GST-tagged CtNbr1 FW domain or hNBR1 FW domain was bound to a CM5 sensor chip. Chemically synthesized CtAms1 N-terminal peptides (twofold serial dilutions from 100 μM to 3.13 μM) flowed through the chip surface. […]
(§2) Wild-type and mutant forms of GST-CtNbr1(635–775) and wild-type GST-hNBR1(358-498) were purified from E. coli, and FLAG2-His6 (FFH)-tagged CtAms1 and CtAms1-G2A were purified from S. pombe. […] The dissociation constants (KD) were calculated by fitting the sensorgrams to a 1:1 binding model (for protein–protein interaction) or a steady-state model (for protein-peptide interaction) using Biacore T200 evaluation software.
A general note: SPR reads the build-up and loss of mass on a sensor chip optically.

Assay [2] concerns the target CtNbr1-FW-W763A. In words: SPR analysis of CtNbr1-FW-W763A with CtAms1 protein. The class given is binding, Chaetomium thermophilum. The note with it: Biacore T200, 25 °C, GST-CtNbr1 FW W763A mutant captured on CM5 chip, about 200 RU, 10 mM HEPES, pH 7.4, 150 mM NaCl, 0.05% Tween 20, CtAms1 50 to 1.56 nM, performed once.
Description: as §1, §2

Assay [3] concerns the target CtNbr1-FW-D654A. Kind of assay: SPR analysis of CtNbr1-FW-D654A with CtAms1 protein. The note with it: Biacore T200, 25 °C, GST-CtNbr1 FW D654A mutant captured on CM5 chip, about 200 RU, 10 mM HEPES, pH 7.4, 150 mM NaCl, 0.05% Tween 20, CtAms1 50 to 1.56 nM, performed once. The assay is classed as binding, Chaetomium thermophilum.
Description: as §1, §2

For assay [4], the system named is CtNbr1-FW-D654E. Kind of assay: Pil1 co-tethering assay, CtAms1 and mutants with CtNbr1 FW domain D654E. The class given is cell-based, Chaetomium thermophilum. The note with it: CtNbr1-FW-D654E fused to Pil1-mCherry, CtAms1-mECitrine or mutants, in S. pombe, 30 °C; two independent experiments.
Description: as §1
(§3) Fission yeast cells were grown to mid-log phase in EMM medium at 30 °C. […] Images were obtained with a 100 × 1.4NA objective and analyzed with the SoftWoRx software.
(§4) To examine a pair-wise protein-protein interaction, a bait protein was fused to Pil1-mCherry, and a prey protein was fused to mECitrine. Cells co-expressing both proteins were grown to mid-log phase in EMM medium at 30 °C for fluorescence microscopy. […]

The subject of assay [5] is S. pombe cells. In words: Localization / vacuolar entry of CtAms1-mCherry in S. pombe. The class given is cell-based, Schizosaccharomyces pombe. From the text: Fig. 5 CtNbr1 mediates vacuolar targeting of CtAms1 via conventional autophagy machinery in S. pombe. a CtNbr1 interacts with SpAtg8 in Pil1 co-tethering assay. SpAtg8(1−115), which lacks the G116 residue required for lipidation, was fused to Pil1-mCherry and co-expressed with mECitrine-tagged CtNbr1 in S. pombe. Pil1-mCherry served as a negative control. Cells were observed by fluorescence microscopy. Bar, 3 μm. b CtNbr1 can enter the vacuole through autophagy in nitrogen-starved S. pombe cells. CtNbr1-mCherry was expressed in wild-type and atg5Δ cells. SpCpy1-Venus was used as a vacuole lumen marker. Cells were collected before (0 h) and 8 h after nitrogen starvation (-N) and examined by fluorescence microscopy. […] C-terminally mCherry-tagged CtAms1, CtAms1-G2A, and CtAms1-G3A were individually co-expressed with untagged CtNbr1 in wild-type S. pombe cells. CtAms1-mCherry alone expressed in wild-type cells served as a negative control. CtAms1-mCherry was also co-expressed with untagged CtNbr1 in atg5Δ cells. Cells were collected before (0 h) and 3 h after nitrogen starvation and were examined by fluorescence microscopy. Bar, 3 μm. The data shown are representative of two independent experiments with similar results. Source data are provided as a Source Data file.
Plasmids expressing mECitrine- or mCherry-tagged CtNbr1 under the control of the P41nmt1 promoter and plasmids expressing mCherry-tagged CtAms1 under the control of the P41nmt1 promoter were constructed using modified stable integration vectors. Plasmids were linearized by NotI digestion and integrated at the ura4 or ade6 locus of the S. pombe genome.
Fission yeast cells were grown to mid-log phase in EMM medium at 30 °C. Microscopy was performed using the DeltaVision PersonalDV system (Applied Precision) equipped with a mCherry/YFP filter set (Chroma 89006 set) and a Photometrics Evolve 512 EMCCD camera. Images were obtained with a 100 × 1.4NA objective and analyzed with the SoftWoRx software.

Assay [6] relates to CtNbr1. In words: Pil1 co-tethering assay, candidate cargo proteins with CtNbr1. The class given is cell-based, Chaetomium thermophilum. The note with it: Pil1-mCherry-CtNbr1 bait, mECitrine prey, co-expressed in S. pombe, EMM medium, 30 °C; fluorescence microscopy; two independent experiments.
Description: To investigate whether this receptor-cargo relationship is conserved in C. thermophilum, we examined whether CtNbr1 interacts with the Ct homologs of NVT cargo proteins using an imaging-based Pil1 co-tethering assay. In this assay, CtNbr1 was fused to the C-terminus of the Pil1-mCherry fusion protein, which localizes to distinctive filamentary structures. A cargo protein of interest was fused to the N-terminus of fluorescent protein mECitrine. The two proteins were co-expressed in S. pombe and if they interact with each other, co-localization on filamentary structures would be observed. […] To map which domain is responsible for binding CtAms1, a series of CtNbr1 fragments were analyzed (Fig. 1b).
Plasmids expressing proteins with mECitrine/mCherry/GFP tags under the control of Pnmt1 or P41nmt1 promoter were constructed using modified pDUAL vectors. […]
as §3, §4

B1: CtAms1: Chaetomium thermophilum α-mannosidase Ams1 (CTHT_0067100) (protein)
chain: MGGETFDVKGPRPNDYPLRAPKPVGQLISHIYKDRIAQFYNGGQYEHQNLRAMMKEDSVSGEPHVQLWVWHAPGQTRPSFEEAVSNQFVKTNVGEWFGPSWTTHWFRVVLTVPEHLQNKRLLEFHWDSNSEGLVWSEDGKPLQGLTGGGERVEWILPDSFRDGKEHTIYIEMACNRMFGNAPGGDSIQPPDPNKYFRLDKAEIVAIDPDARQLWIDIWILQDAAREFPGDSWESHKALQVCNEIIEAFELGNRESLKKCRKIAEQYLGPNVDSPNVYNSGKEPLVYAIGHCHIDSCWLWPFAETKRKVVRSWSSQCDLMDRYPELNFVCSQAQQYKWLKQLYPYAFERVKKKVAEGRFHPIGGSWVEHDTNMPSGESLVRQFLYGQRFYESNFGKRCKTFWLPDTFGYSAQLPQLCRLAGMTRFLTQKLSWNNINRFPHTTFNWVALDGSQVICHMPPSETYTAEAHFGDVKRSMSQHKSLDQDNTSLLVFGKGDGGGGPTWVQIEKLRRCRGISDTVGLLPRVHMGSSVDDFFDRLERKADTFVTWYGELYFELHRGTYTTQAKNKKNNRRAEAKLRDLELLATIASVQDKSYKYPKEEFDAMWENVLLCQFHDCLPGSSIEMAYRESDQMYADVFSTAEKIMKGVSQVLGLEPALNHMSTTNTVALNTLPWPRRELVKISEKEAAVAHGTGPFLKLQKLETTKPLVTLRQVTKGAFVLENSQLRVHVEKGVITSLYDKQANREVIPKGQKANQYVIFDDKPLYWQAWDVEVYHLDTRKELPSGETEVHENTPHRVSVVTRTKVSDKSHIQTIIALNGAVEGEQSWVEVQSKVDWHETMKFLKVEFPVDVRNTEASYETAFGIVRRPTHYNTSWDMAKFEVCAHRWADLSEYGYGVSILNDSKYGFATAGQTMRLSLLRSPKAPDAHADMGTHHIRWAILPHQGSLSHVTIRKAFEFNNPTKLYSSPDAAALVAAPPPVWLTPDSSPAIVLDTVKRGEDDEDVSRGELPARKGQSVILRMYDSLGGLARGTVVTTWPLKKVCKVNLLEDDLEVVPWENGRFTVELRPFEVASYRLVLA
As for B1, the equilibrium dissociation constant (Kd) (as a rule, the equilibrium constant for the complex coming apart) in assay [1] was determined as 3.4 nM. The “dissociation constant (KD)” value in assay [2] and in assay [3] was “No binding” each time. In addition, in assay [4], the “binding to D654E mutant of CtNbr1 FW domain” value is listed as “bound”. The “localization of CtAms1 expressed alone” value in assay [5] (no CtNbr1, nutrient-rich and nitrogen starvation (3 h), wild-type S. pombe, CtAms1-mCherry) is reported as “diffuse cytoplasmic distribution”. The CtNbr1-dependent vacuolar entry result in assay [5] (untagged CtNbr1 co-expressed, 3 h nitrogen starvation, atg5Δ S. pombe) was “abolished”. Further, in assay [5] (untagged CtNbr1 co-expressed, 3 h nitrogen starvation, wild-type S. pombe), the “vacuolar entry on co-expression of CtNbr1” value was “vacuolar entry”. Further, in assay [5] (untagged CtNbr1 co-expressed, nutrient-rich conditions (0 h), wild-type S. pombe), the “cell periphery accumulation on co-expression of CtNbr1” value is recorded as “cell periphery accumulation”. In addition, the “interaction with CtNbr1” value in assay [6] was “interacted”.
